{"source": "paper PMC2802489", "molecules": {"B1": {"name": "Adh2 (Saccharomyces cerevisiae S288C) (protein)", "chain": "SIPETQKAIIFYESNGKLEHKDIPVPKPKPNELLINVKYSGVCHTDLHAWHGDWPLPTKLPLVGGHEGAGVVVGMGENVKGWKIGDYAGIKWLNGSCMACEYCELGNESNCPHADLSGYTHDGSFQEYATADAVQAAHIPQGTDLAEVAPILCAGITVYKALKSANLRAGHWAAISGAAGGLGSLAVQYAKAMGYRVLGIDGGPGKEELFTSLGGEVFIDFTKEKDIVSAVVKATNGGAHGIINVSVSEAAIEASTRYCRANGTVVLVGLPAGAKCSSDVFNHVVKSISIVGSYVGNRADTREALDFFARGLVKSPIKVVGLSSLPEIYEKMEKGQIAGRYVVDTSK"}, "B2": {"name": "YqhD (Escherichia coli K-12) (protein)", "chain": "NNFNLHTPTRILFGKGAIAGLREQIPHDARVLITYGGGSVKKTGVLDQVLDALKGMDVLEFGGIEPNPAYETLMNAVKLVREQKVTFLLAVGGGSVLDGTKFIAAAANYPENIDPWHILQTGGKEIKSAIPMGCVLTLPATGSESNAGAVISRKTTGDKQAFHSAHVQPVFAVLDPVYTYTLPPRQVANGVVDAFVHTVEQYVTKPVDAKIQDRFAEGILLTLIEDGPKALKEPENYDVRANVMWAATQALNGLIGAGVPQDWATHMLGHELTAMHGLDHAQTLAIVLPALWNEKRDTKRAKLLQYAERVWNITEGSDDERIDAAIAATRNFFEQLGVPTHLSDYGLDGSSIPALLKKLEEHGMTQLGENHDITLDVSRRIYEAAR"}}, "assay_in_all_cases": "purified protein", "key": {"CC(C)C=O": {"system": "CC(C)C=O", "conditions": "0.25 mM NADH, 50 mM MOPS pH 7.0, 37 °C, 100 nM enzyme"}, "CC=O": {"system": "CC=O", "conditions": "0.25 mM NADH, 50 mM MOPS pH 7.0, 37 °C, 100 nM enzyme"}, "purified protein [1]": {"substrate": "CC=O", "type": "biochemical, Saccharomyces cerevisiae", "conditions": "0.25 mM NADH, 50 mM MOPS pH 7.0, 37 °C, 100 nM enzyme"}, "purified protein [2]": {"substrate": "CC=O", "type": "biochemical, Escherichia coli", "conditions": "0.25 mM NADPH, 50 mM MOPS pH 7.0, 37 °C, 100 nM enzyme"}, "purified protein [3]": {"substrate": "CC(C)C=O", "type": "biochemical, Escherichia coli", "conditions": "0.25 mM NADPH, 50 mM MOPS pH 7.0, 37 °C, 100 nM enzyme"}}, "data": [{"molecule": "AdhA (Lactococcus lactis subsp. lactis Il1403)", "values": [{"measurement": "Km", "setting": "CC(C)C=O", "result": "9100 ± 2900", "unit": "µM"}, {"measurement": "kcat", "setting": "CC(C)C=O", "result": "6.6 ± 0.2", "unit": "s⁻¹"}, {"measurement": "kcat/Km", "setting": "CC(C)C=O", "result": 800, "unit": "M⁻¹ s⁻¹"}, {"measurement": "Km", "setting": "CC=O", "result": "500 ± 200", "unit": "µM"}, {"measurement": "kcat", "setting": "CC=O", "result": "10 ± 0.3", "unit": "s⁻¹"}, {"measurement": "kcat/Km", "setting": "CC=O", "result": 20900, "unit": "M⁻¹ s⁻¹"}]}, {"molecule": "B1", "values": [{"measurement": "Km", "setting": "purified protein [1]", "result": "140 ± 20", "unit": "µM"}, {"measurement": "kcat", "setting": "purified protein [1]", "result": "6.6 ± 0.5", "unit": "s⁻¹"}, {"measurement": "kcat/Km", "setting": "purified protein [1]", "result": 46900, "unit": "M⁻¹ s⁻¹"}]}, {"molecule": "B2", "values": [{"measurement": "Km", "setting": "purified protein [2]", "result": "27600 ± 12400", "unit": "µM"}, {"measurement": "kcat", "setting": "purified protein [2]", "result": "1.1 ± 0.1", "unit": "s⁻¹"}, {"measurement": "kcat/Km", "setting": "purified protein [2]", "result": 50, "unit": "M⁻¹ s⁻¹"}, {"measurement": "Km", "setting": "purified protein [3]", "result": "1800 ± 1300", "unit": "µM"}, {"measurement": "kcat", "setting": "purified protein [3]", "result": "1 ± 0.1", "unit": "s⁻¹"}]}]}
